Results on one molecule are retold here after US20160031972A1 (XIAMEN INNOVAX BIOTECH, published 2016).

For experiment [1], the target named is T1, RSV F protein in RSV-A2 virus preparation (Western Blot sample) (respiratory syncytial virus A2 strain, UniProt P03420 26-574).
T1 construct: Loaded boiled (denatured) or non-boiled (non-denatured); also called RSV A2 strain
The experiment can be described thus: Western Blot, non-boiled sample. Background: A western blot detects proteins with antibodies after separation by electrophoresis.

In experiment [2] the target is T2, post-F protein (RSV-A2 F protein with P102A, I379V, M447V and fusion peptide positions 137-146 removed, … (respiratory syncytial virus, RSV-A2, UniProt P03420 26-524)).
T2 construct: Signal peptide, furin processing and the residue of the HRV 3C site left after cleavage are not described; also called RSV-post F; post-fusion F
As to the kind of experiment: hybridoma screening, RSV-post F enzyme-linked immunosorbent assay.

Experiment [3] deals with T3, RSV F protein on Hep2 cells infected with RSV-A2 (immunofluorescent assay) (respiratory syncytial virus A2 strain, UniProt P03420 26-574).
T3 construct: whole, on cells
As to the kind of experiment: immunofluorescence on RSV-A2-infected Hep2 cells, confocal microscopy.

B1: monoclonal antibody 5C4 (antibody, V domains shown)
VH: EVQLQQSGAELVKPGASVKLSCTASGFNIKDTFFHWVKQRPEQGLEWIGRIDPADGHTKYDPKFQGKATITADTSSNTAFLQLSSLTSEDTAVYYCATTITAVVPTPYNAMDYWGQGTSVTVSS
VL: DIVLTQSPASLAVSLGQRTTISCRASESVDSFDNSFIHWYQQKPGQPPKLLIFLASSLESGVPARFSGSGSRTDFTLTIDPVEADDAATYYCQQSNEDPFTFGSGTKLEIKR
notes: Mouse hybridoma antibody purified from ascites; kappa light chain; also called 5C4 monoclonal antibody; 5C4 antibody
For the molecule B1, the binding result is “binds” in experiment [1], “no binding” in experiment [2] and “binds” in experiment [3].
